{"source": "patent US20060210984A1", "key": {"IFN-γ (human) [1]": {"molecular_target": "IFN-γ (human) (UniProt P01579)", "sequence (P01579 24-166 limits assumed)": "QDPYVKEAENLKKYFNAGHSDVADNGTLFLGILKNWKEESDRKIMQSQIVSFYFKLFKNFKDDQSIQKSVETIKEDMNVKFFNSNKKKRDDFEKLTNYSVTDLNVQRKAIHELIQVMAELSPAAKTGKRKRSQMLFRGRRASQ", "assay": "sandwich microarray in flow cell, chemiluminescence, cytokine 1 ng/ml; Chip 1"}, "IFN-γ (human) [2]": {"molecular_target": "IFN-γ (human) (UniProt P01579)", "assay": "sandwich microarray in flow cell, chemiluminescence, cytokine 1 ng/ml; Chip 2"}, "IFN-γ (human) [3]": {"molecular_target": "IFN-γ (human) (UniProt P01579)", "assay": "sandwich microarray in flow cell, chemiluminescence, cytokine 1 ng/ml; Chip 3"}, "IFN-γ (human) [4]": {"molecular_target": "IFN-γ (human) (UniProt P01579)", "assay": "sandwich microarray in flow cell, chemiluminescence, cytokine 1 ng/ml; Chip 4"}, "IFN-γ (human) [5]": {"molecular_target": "IFN-γ (human) (UniProt P01579)", "assay": "sandwich microarray in flow cell, chemiluminescence, cytokine 1 ng/ml; Chip 5"}, "IFN-γ (human) [6]": {"molecular_target": "IFN-γ (human) (UniProt P01579)", "assay": "sandwich microarray in flow cell, chemiluminescence, cytokine 1 ng/ml; AVG of Chips 1-5"}, "IFN-γ (human) [7]": {"molecular_target": "IFN-γ (human) (UniProt P01579)", "assay": "sandwich microarray in flow cell, chemiluminescence, cytokine 1 ng/ml, divided by chip-specific PNA calibration factor; Chip 1"}, "IFN-γ (human) [8]": {"molecular_target": "IFN-γ (human) (UniProt P01579)", "assay": "sandwich microarray in flow cell, chemiluminescence, cytokine 1 ng/ml, divided by chip-specific PNA calibration factor; Chip 2"}, "IFN-γ (human) [9]": {"molecular_target": "IFN-γ (human) (UniProt P01579)", "assay": "sandwich microarray in flow cell, chemiluminescence, cytokine 1 ng/ml, divided by chip-specific PNA calibration factor; Chip 3"}, "IFN-γ (human) [10]": {"molecular_target": "IFN-γ (human) (UniProt P01579)", "assay": "sandwich microarray in flow cell, chemiluminescence, cytokine 1 ng/ml, divided by chip-specific PNA calibration factor; Chip 4"}, "IFN-γ (human) [11]": {"molecular_target": "IFN-γ (human) (UniProt P01579)", "assay": "sandwich microarray in flow cell, chemiluminescence, cytokine 1 ng/ml, divided by chip-specific PNA calibration factor; Chip 5"}, "IFN-γ (human) [12]": {"molecular_target": "IFN-γ (human) (UniProt P01579)", "assay": "sandwich microarray in flow cell, chemiluminescence, cytokine 1 ng/ml, divided by chip-specific PNA calibration factor; AVG of Chips 1-5"}, "IL-1a (human) [13]": {"molecular_target": "IL-1a (human) (UniProt P01583)", "sequence (P01583 113-271 limits assumed)": "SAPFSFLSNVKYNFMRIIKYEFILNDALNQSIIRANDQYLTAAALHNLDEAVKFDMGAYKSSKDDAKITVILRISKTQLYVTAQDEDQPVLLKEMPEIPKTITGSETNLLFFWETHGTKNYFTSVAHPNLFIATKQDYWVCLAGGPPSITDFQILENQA", "assay": "sandwich microarray in flow cell, chemiluminescence, cytokine 1 ng/ml; Chip 1"}, "IL-1a (human) [14]": {"molecular_target": "IL-1a (human) (UniProt P01583)", "assay": "sandwich microarray in flow cell, chemiluminescence, cytokine 1 ng/ml; Chip 2"}, "IL-1a (human) [15]": {"molecular_target": "IL-1a (human) (UniProt P01583)", "assay": "sandwich microarray in flow cell, chemiluminescence, cytokine 1 ng/ml; Chip 3"}, "IL-1a (human) [16]": {"molecular_target": "IL-1a (human) (UniProt P01583)", "assay": "sandwich microarray in flow cell, chemiluminescence, cytokine 1 ng/ml; Chip 4"}, "IL-1a (human) [17]": {"molecular_target": "IL-1a (human) (UniProt P01583)", "assay": "sandwich microarray in flow cell, chemiluminescence, cytokine 1 ng/ml; Chip 5"}, "IL-1a (human) [18]": {"molecular_target": "IL-1a (human) (UniProt P01583)", "assay": "sandwich microarray in flow cell, chemiluminescence, cytokine 1 ng/ml; AVG of Chips 1-5"}, "IL-1a (human) [19]": {"molecular_target": "IL-1a (human) (UniProt P01583)", "assay": "sandwich microarray in flow cell, chemiluminescence, cytokine 1 ng/ml, divided by chip-specific PNA calibration factor; Chip 1"}, "IL-1a (human) [20]": {"molecular_target": "IL-1a (human) (UniProt P01583)", "assay": "sandwich microarray in flow cell, chemiluminescence, cytokine 1 ng/ml, divided by chip-specific PNA calibration factor; Chip 2"}, "IL-1a (human) [21]": {"molecular_target": "IL-1a (human) (UniProt P01583)", "assay": "sandwich microarray in flow cell, chemiluminescence, cytokine 1 ng/ml, divided by chip-specific PNA calibration factor; Chip 3"}, "IL-1a (human) [22]": {"molecular_target": "IL-1a (human) (UniProt P01583)", "assay": "sandwich microarray in flow cell, chemiluminescence, cytokine 1 ng/ml, divided by chip-specific PNA calibration factor; Chip 4"}, "IL-1a (human) [23]": {"molecular_target": "IL-1a (human) (UniProt P01583)", "assay": "sandwich microarray in flow cell, chemiluminescence, cytokine 1 ng/ml, divided by chip-specific PNA calibration factor; Chip 5"}, "IL-1a (human) [24]": {"molecular_target": "IL-1a (human) (UniProt P01583)", "assay": "sandwich microarray in flow cell, chemiluminescence, cytokine 1 ng/ml, divided by chip-specific PNA calibration factor; AVG of Chips 1-5"}}, "data": [{"substance": "MAb IFN-g (monoclonal capture antibody of the anti-human IFN-γ OptEIA matched pair, BD Biosciences-Pharmingen)", "values": [{"measurement": "chemiluminescent spot intensity (Un-Calibrated Data)", "setting": "IFN-γ (human) [1]", "result": 0}, {"measurement": "chemiluminescent spot intensity (Un-Calibrated Data)", "setting": "IFN-γ (human) [2]", "result": 0}, {"measurement": "chemiluminescent spot intensity (Un-Calibrated Data)", "setting": "IFN-γ (human) [3]", "result": 10}, {"measurement": "chemiluminescent spot intensity (Un-Calibrated Data)", "setting": "IFN-γ (human) [4]", "result": 2}, {"measurement": "chemiluminescent spot intensity (Un-Calibrated Data)", "setting": "IFN-γ (human) [5]", "result": 0}, {"measurement": "chemiluminescent spot intensity (Un-Calibrated Data)", "setting": "IFN-γ (human) [6]", "result": 2.4}, {"measurement": "chemiluminescent spot intensity (Calibrated Data)", "setting": "IFN-γ (human) [7]", "result": 0}, {"measurement": "chemiluminescent spot intensity (Calibrated Data)", "setting": "IFN-γ (human) [8]", "result": 0}, {"measurement": "chemiluminescent spot intensity (Calibrated Data)", "setting": "IFN-γ (human) [9]", "result": 10}, {"measurement": "chemiluminescent spot intensity (Calibrated Data)", "setting": "IFN-γ (human) [10]", "result": 4.39}, {"measurement": "chemiluminescent spot intensity (Calibrated Data)", "setting": "IFN-γ (human) [11]", "result": 0}, {"measurement": "chemiluminescent spot intensity (Calibrated Data)", "setting": "IFN-γ (human) [12]", "result": 2.88}]}, {"substance": "MAb IL-1a (monoclonal capture antibody of the anti-human IL-1a OptEIA matched pair, BD Biosciences-Pharmingen)", "values": [{"measurement": "chemiluminescent spot intensity (Un-Calibrated Data)", "setting": "IL-1a (human) [13]", "result": 175}, {"measurement": "chemiluminescent spot intensity (Un-Calibrated Data)", "setting": "IL-1a (human) [14]", "result": 95}, {"measurement": "chemiluminescent spot intensity (Un-Calibrated Data)", "setting": "IL-1a (human) [15]", "result": 312}, {"measurement": "chemiluminescent spot intensity (Un-Calibrated Data)", "setting": "IL-1a (human) [16]", "result": 137}, {"measurement": "chemiluminescent spot intensity (Un-Calibrated Data)", "setting": "IL-1a (human) [17]", "result": 121}, {"measurement": "chemiluminescent spot intensity (Un-Calibrated Data)", "setting": "IL-1a (human) [18]", "result": 168}, {"measurement": "chemiluminescent spot intensity (Calibrated Data)", "setting": "IL-1a (human) [19]", "result": 293}, {"measurement": "chemiluminescent spot intensity (Calibrated Data)", "setting": "IL-1a (human) [20]", "result": 325}, {"measurement": "chemiluminescent spot intensity (Calibrated Data)", "setting": "IL-1a (human) [21]", "result": 312}, {"measurement": "chemiluminescent spot intensity (Calibrated Data)", "setting": "IL-1a (human) [22]", "result": 301}, {"measurement": "chemiluminescent spot intensity (Calibrated Data)", "setting": "IL-1a (human) [23]", "result": 373}, {"measurement": "chemiluminescent spot intensity (Calibrated Data)", "setting": "IL-1a (human) [24]", "result": 321}]}]}
